Measurements as given in article PMC11901735.

Experiments:
[1] = target: Recombinant human GLP-1R protein (human) (UniProt P43220); test: SPR; Biacore T200; recombinant human GLP-1R (0.5 μM) immobilized on a CM5 sensor chip; peptides injected at four-fold serial dilutions (0, 0.1-100 nM); n = 3; 1:1 interaction model
[2] = target: GLP-1R of mouse pancreatic β-cells (mouse (endogenous in ddY mouse pancreas)) (UniProt O35659)
Sequence of GLP-1R of mouse pancreatic β-cells (mouse (endogenous in ddY mouse pancreas)) (O35659 22-463): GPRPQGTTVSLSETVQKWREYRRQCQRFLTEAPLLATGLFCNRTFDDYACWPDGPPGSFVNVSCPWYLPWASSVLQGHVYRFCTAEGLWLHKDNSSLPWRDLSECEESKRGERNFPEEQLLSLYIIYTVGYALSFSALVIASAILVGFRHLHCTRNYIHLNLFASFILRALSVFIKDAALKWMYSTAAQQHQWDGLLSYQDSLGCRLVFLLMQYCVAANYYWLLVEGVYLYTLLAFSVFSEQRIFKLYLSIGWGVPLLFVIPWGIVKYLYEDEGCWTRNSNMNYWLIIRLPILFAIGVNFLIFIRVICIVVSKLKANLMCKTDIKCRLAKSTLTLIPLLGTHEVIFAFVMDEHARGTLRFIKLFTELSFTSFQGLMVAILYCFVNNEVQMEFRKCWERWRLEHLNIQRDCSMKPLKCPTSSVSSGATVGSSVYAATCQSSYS

Sequence of Recombinant human GLP-1R protein (human) (P43220 24-463): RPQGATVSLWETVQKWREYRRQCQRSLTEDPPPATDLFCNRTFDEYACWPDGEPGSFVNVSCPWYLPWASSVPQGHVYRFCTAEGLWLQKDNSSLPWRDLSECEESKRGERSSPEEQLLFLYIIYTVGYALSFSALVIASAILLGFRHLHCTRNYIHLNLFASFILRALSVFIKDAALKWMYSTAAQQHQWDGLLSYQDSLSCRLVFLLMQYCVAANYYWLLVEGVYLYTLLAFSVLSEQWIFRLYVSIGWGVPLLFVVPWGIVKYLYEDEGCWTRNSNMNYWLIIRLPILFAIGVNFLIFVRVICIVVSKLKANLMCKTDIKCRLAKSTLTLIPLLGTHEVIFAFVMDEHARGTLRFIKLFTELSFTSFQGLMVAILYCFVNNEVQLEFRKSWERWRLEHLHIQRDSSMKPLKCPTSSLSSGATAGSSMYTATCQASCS

I-Ex-4, Ex-4-C40 labeled with IPM at the additional C-terminal Cys (peptide)
Kd [1]: 28.1 nM
radioactivity in the pancreas 5-120 min after i.v. administration of [^125I]I-Ex-4 to mice (highest at 60 min) (% injected dose per gram tissue) [2]: 11.3
